This note sets out measurements from paper PMC5084153, “Structural studies on MRG701 chromodomain reveal a novel dimerization interface of MRG proteins in green plants” (Protein & Cell, 2016).

B1: MRG1 chromodomain (MRG1^CD, residues 28-110) (domain or fragment, Arabidopsis thaliana, UniProt Q94C32 28-110, looked up)
chain: LFSEGERVLAYHGPRVYGAKVQKVELRKKEWKYFVHYLGWNKNWDEWVSADRLLKHTEENLVKQKALDKKQGVEKGTKSGRSA
notes: MRG1 of Arabidopsis thaliana, chromodomain, residues 28-110; Homodimer by SEC-MALS; also called wild-type MRG1^CD; source: E. coli BL21 (DE3), purified (Ni HiTrap, tag removed by ULP enzyme, Superdex G75)

Where “and” joins values, the source holds several entries; their conditions need not be identical. Identical values can stand only once. Primed or numbered codes have the meaning given here. No end group written: not given here. Me3″ = trimethyl (trimethyl-lysine)

One data set deals with T1, MRG1^CDW58A (Arabidopsis thaliana, UniProt Q94C32, W58A).
T1 construct: Arabidopsis thaliana MRG1 (residues 28–110); His-SMT3 (SUMO) from modified pET28-SMT3 (N, cleaved yes); made in house; host or cells: Escherichia coli BL21 (DE3)
The format is binding. On the procedure: The cDNA encoding the chromodomain of Arabidopsis thaliana MRG1 (residues 28–110) and Oryza sativa MRG701 (residues 27–96) were amplified by PCR and cloned into the modified pET28-SMT3 vector. Point mutants were generated by Site-Directed Mutagenesis kit (NEB) according to the manufacturer’s instructions. The plasmid was transformed into Escherichia coli strain BL21 (DE3). The cells were cultured in LB medium with 50 μg/mL kanamycin and induced by final concentration of 0.2 mmol/L isopropyl-β-d-thiogalactopyranoside (IPTG) at 18°C for 18 h. Cells were harvested and re-suspended in 20 mmol/L Tris pH 8.0, 500 mmol/L NaCl, 25 mmol/L imidazole and then broken by cell disruptor (JNBIO). The fusion protein was purified first with Ni HiTrap column (GE healthcare) and then removed the tag by ULP enzyme. The target protein was further purified with Superdex G75 Hiload 26/60 column (GE healthcare) and then concentrated to 20 mg/mL for structural and biochemical studies.
ITC experiments were carried out at 20°C on a MicroCal iTC200. Protein and peptide were kept in an identical buffer of 20 mmol/L Tris pH 8.0, 100 mmol/L NaCl. The sample cell was filled with a 0.1–0.2-mmol/L solution of protein, and the injection syringe with 1–2 mmol/L of the titrating ligand. […] Binding isotherms were analyzed by fitting data into the one-site model using the ITC data analysis module Origin 7.0 software.

In another data set the target is T2, MRG2^CDE75A (Arabidopsis thaliana, UniProt Q4V3E2, E75A).
T2 construct: the Arabidopsis MRG2 chromodomain (MRG2^CD)
The data set is classed as binding. The protocol: ITC experiments were carried out at 20°C on a MicroCal iTC200. Protein and peptide were kept in an identical buffer of 20 mmol/L Tris pH 8.0, 100 mmol/L NaCl. The sample cell was filled with a 0.1–0.2-mmol/L solution of protein, and the injection syringe with 1–2 mmol/L of the titrating ligand. Each titration consisted of 20 2-μL injections with 2 min interval. Binding isotherms were analyzed by fitting data into the one-site model using the ITC data analysis module Origin 7.0 software.

Data set [1] addresses MRG701 chromodomain (MRG701^CD, residues 27-96) (Oryza sativa). In words: SEC-MALS; Wyatt 015S5 (150 Å) column, 0.5 mL/min, 10 mmol/L Tris 8.0, 100 mmol/L NaCl; self-association of the chromodomain. In general terms: In gel filtration, larger molecules generally elute earlier.
Data set [2] has the same target. In words: ITC; MicroCal iTC200, 20°C, 20 mmol/L Tris pH 8.0, 100 mmol/L NaCl; protein 0.1-0.2 mmol/L in the cell, peptide 1-2 mmol/L in the syringe; one-site model.
Data set [3] has as its target MRG701 chromodomain mutant W56A (MRG701^CDW56A) (Oryza sativa). Described as above.
Data set [4] deals with the molecule itself. In words: SEC-MALS; Wyatt 015S5 (150 Å) column, 0.5 mL/min, 10 mmol/L Tris 8.0, 100 mmol/L NaCl; self-association of the chromodomain.
Data set [5] in a line: SEC-MALS analysis of oligomerization status in solution. The format is physicochemical. As to conditions: for oligomerization in crystal and in solution (in words): SEC-MALS and crystal structure; for Observed molar mass by SEC-MALS: Wyatt 015S5 (150 Å) column, 0.5 mL/min, 10 mmol/L Tris 8.0, 100 mmol/L NaCl, multi-angle light scattering and differential refractive index. On the procedure: The absolute molar mass of target protein was determined by size exclusion chromatography coupled with multi-angel light scattering. The experiments were performed by an Agilent system connected with a Wyatt DAWN HELEOS-II multi-angle light scattering instrument and a Wyatt OptilabrEX differential refractometer. A Wyatt 015S5 (150 Å) column was used with a 100 μL sample loop at a flow rate of 0.5 mL/min in the running buffer of 10 mmol/L Tris 8.0, 100 mmol/L NaCl. The molar mass was calculated by light scattering intensity and differential refractive index using Wyatt ASTRA 6 software (Wyatt, [1993]).

Data set [6] deals with T3, MRG1 chromodomain (MRG1^CD, residues 28-110) (Arabidopsis thaliana, UniProt Q94C32 28-110).
T3 chain: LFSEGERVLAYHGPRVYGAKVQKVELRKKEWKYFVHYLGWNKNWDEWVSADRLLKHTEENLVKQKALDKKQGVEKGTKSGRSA
In words: ITC. Background: ITC needs no label: the signal is the heat of the interaction.

The target of data set [7] is T4, MRG2 chromodomain (MRG2^CD) (Arabidopsis, UniProt Q4V3E2 51-123).
T4 chain: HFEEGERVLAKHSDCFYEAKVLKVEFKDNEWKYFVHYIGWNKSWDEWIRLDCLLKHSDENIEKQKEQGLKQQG
In words: ITC.

For data set [8], the target named is T5, MRG2 chromodomain mutant E75A (MRG2^CDE75A) (Arabidopsis, UniProt Q4V3E2 51-123, E75A).
T5 sequence: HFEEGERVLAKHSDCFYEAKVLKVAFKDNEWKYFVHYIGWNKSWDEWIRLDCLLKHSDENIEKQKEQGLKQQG
In words: ITC.

The target of data set [9] is T6, MRG1 chromodomain mutant W58A (MRG1^CDW58A) (Arabidopsis thaliana, UniProt Q94C32 28-110, W58A).
T6 sequence: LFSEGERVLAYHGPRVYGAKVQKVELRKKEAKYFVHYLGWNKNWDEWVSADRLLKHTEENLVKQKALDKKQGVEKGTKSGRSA
In words: ITC.

Data set [10] has as its target B1. In words: ITC; MicroCal iTC200, 20°C, 20 mmol/L Tris pH 8.0, 100 mmol/L NaCl; protein 0.1-0.2 mmol/L in the cell, peptide 1-2 mmol/L in the syringe; one-site model. As to conditions: both partners purified.
Data set [11] deals with T7, MRG1 chromodomain mutant W58A (MRG1^CDW58A) (Arabidopsis thaliana, UniProt Q94C32 28-110, W58A).
T7 construct: MRG1 of Arabidopsis thaliana, chromodomain, residues 28-110, point mutant W58A; source: E. coli BL21 (DE3), purified (Ni HiTrap, tag removed by ULP enzyme, Superdex G75)
T7 sequence (looked up): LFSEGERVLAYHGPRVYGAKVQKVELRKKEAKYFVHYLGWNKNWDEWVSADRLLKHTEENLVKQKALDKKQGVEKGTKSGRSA
Described as above. As to conditions: both partners purified.

For `C[C@H](N)C(=O)N[C@@H](CCCNC(=N)N)C(=O)N[C@H](C(=O)N[C@@H](CCCC[N+](C)(C)C)C(=O)N[C@@H](CCC(N)=O)C(=O)N[C@H](C(=O)N[C@@H](C)C(=O)N[C@@H](CCCNC(=N)N)C(=O)N[C@@H](CCCCN)C(=O)O)[C@@H](C)O)[C@@H](C)O` [H3K4me3], the “difference of Kd between wild-type and mutant proteins (in words)” value at MRG1^CDW58A and on MRG2^CDE75A was “only mild differences” in each case.

In data set [1], “MRG701 chromodomain (MRG701^CD, residues 27-96) (domain or fragment)” yielded a stoichiometry N of 2.

With “histone H3K36me3 peptide (residues 31-41) (from UniProt P68431 32-42)”, the Kd in data set [2] was found to be 510 µM; in [3], 260 µM.

Consider B1, for which the “stoichiometry N” value in [4] is 2.

B2: MRG1^CD: MRG1 chromodomain (residues 28–110), Arabidopsis thaliana (protein)
chain: LFSEGERVLAYHGPRVYGAKVQKVELRKKEWKYFVHYLGWNKNWDEWVSADRLLKHTEENLVKQKALDKKQGVEKGTKSGRSA
modifications: left off: SMT3 (from the modified vector pET28-SMT3), end not stated, cleaved
notes: MRG1 chromodomain (residues 28–110), Arabidopsis thaliana
Consider B2, for which, in [5], the “oligomerization in crystal and in solution (in words)” value is “form dimers both in crystal and in solution”; the “Observed molar mass by SEC-MALS” value was 20.7 kDa and 20.67 ± 2.99 kDa.

B3: MRG1^CDW58A: point mutant of MRG1 chromodomain disrupting π-π stacking (protein)
chain: LFSEGERVLAYHGPRVYGAKVQKVELRKKEAKYFVHYLGWNKNWDEWVSADRLLKHTEENLVKQKALDKKQGVEKGTKSGRSA
modifications: left off: SMT3 (from the modified vector pET28-SMT3), end not stated, cleaved
notes: point mutant of MRG1 chromodomain disrupting π-π stacking
Turning to B3, in data set [5], the “Observed molar mass by SEC-MALS” value was 13.4 kDa and 13.36 ± 1.40 kDa.

B4: MRG2 chromodomain (MRG2^CD) (domain or fragment, Arabidopsis)
chain: HFEEGERVLAKHSDCFYEAKVLKVEFKDNEWKYFVHYIGWNKSWDEWIRLDCLLKHSDENIEKQKEQGLKQQG
notes: MRG2 of Arabidopsis, chromodomain; Homodimer by SEC-MALS; also called wild-type MRG2^CD; source: purified
For B4, in data set [5], the “oligomerization in crystal and in solution (in words)” value is “form dimers both in crystal and in solution”; the “Observed molar mass by SEC-MALS” value is 20.7 kDa and 20.74 ± 3.05 kDa. For the same molecule, the “stoichiometry N” value in data set [4] turned out to be 2.

B5: MRG2^CDE75A: point mutant of MRG2 chromodomain disrupting hydrogen bonding and electrostatic interactions (protein)
chain: HFEEGERVLAKHSDCFYEAKVLKVAFKDNEWKYFVHYIGWNKSWDEWIRLDCLLKHSDENIEKQKEQGLKQQG
As to B5, the “Observed molar mass by SEC-MALS” value in data set [5] is 12.5 kDa and 12.47 ± 0.92 kDa.

B6: histone H3K4me3 peptide (residues 1-9) (peptide, UniProt P68431 2-10, looked up)
peptide: ARTK(Me3″)QTARK
notes: histone H3, residues 1-9, trimethylated at lysine 4
Regarding B6, the Kd was determined as 650 µM in data set [6]; 520 µM in [7]; 450 µM in data set [8]; 910 µM in data set [9]; 330 µM in data set [2]; 250 µM in [3]. In addition, the binding result in data set [10] and in data set [11] was “binds” in each case.

By stoichiometry N is commonly meant the number of molecules, sites or subunits per partner or assembly. By Kd is commonly meant a measure of binding affinity in units of concentration.
